Reference: patent US20260167702A1 (Dana-Farber, published 2026)
Where two headings read alike, the source gives them in different places.

Columns and labels:
[1] = target: recombinant full length HA of A/mallard/Astrakhan/263/82 (H14-AS82) (influenza A virus …, UniProt P26136 18-568); test: BLI, purified recombinant HAs; antibody format not stated here
[2] = target: T1, recombinant full length HA of A/Vietnam/1203/04 (H5-VN04) (influenza A virus A/Vietnam/1203/04 …); test: BLI, IgG1 (legend of FIG. 15)
[3] = target: full length HA of A/Vietnam/1203/04 (H5-VN04) expressed from pcDNA3.1 (on 293T cells and on pseudotyped … (influenza A virus A/Vietnam/1203/04)); test: cell-based or functional assay
[4] = target: T2, recombinant full length HA of A/Perth/16/09 (H3-PE09) (influenza A virus A/Perth/16/09 (H3N2)); test: BLI (Octet RED96), IgG1, recombinant HA
[5] = target: T1, recombinant full length HA of …; test: BLI (Octet RED96), IgG1, recombinant HA
[6] = target: T2, recombinant full length HA of …
[7] = target: T1, recombinant full length HA of …
[8] = target: T2, recombinant full length HA of …; test: BLI, IgG1 ('further experiments', FIGS. 15A and 15B)
[9] = target: T1, recombinant full length HA of …; remark: listed apart in the source

B1: 3I14 IgG1 (wild type) (antibody, V domains shown)
VH: QVQLLESGGGVVQPGRSLRLSCAASGFTFSNYGMHWVRQAPGKGLEWVAIISFDGSKKYYANSVKGRSTISRDNSKNTLSLQMNSLGPEDTALYYCAKLPSPYYFDSRFVWVAASAFHFWGQGILVTVSS
VL: NFMLTQPPSASGTPGQRVTISCSGSSSNIGGNTVHWFQQLPGTAPKLLIYTNSLRPSGVPDRFSGSKSGTSASLAISGLQSEDEADYYCAAWDDSLNGQVFGGGTKLTVL
Q: What does the source list for B1?
A: Kd [1]: < 0.1 nM; Kd [2]: 1.15 nM; IC50, neutralization of H5-VN04 pseudovirus [3]: 0.0816 µg/mL; IC50, neutralization of pseudovirus [3]: 2.14 µg/mL; Kd [4]: 0.263 nM; koff [4]: 3.99e-05 s⁻¹; kon [4]: 152000 M⁻¹ s⁻¹; Kd [5]: 1.02 nM; koff [5]: 0.000387 s⁻¹; kon [5]: 327000 M⁻¹ s⁻¹; Kd [6]: 0.263 nM; koff [6]: 3.99e-05 s⁻¹; kon [6]: 152000 M⁻¹ s⁻¹; Kd [7]: 1.02 nM; koff [7]: 0.000383 s⁻¹; kon [7]: 375000 M⁻¹ s⁻¹; Kd [8]: 1.96 nM; Kd [9]: > 1 nM
